Reference: patent US8263133B2, “Multivalent clustering targeting strategy for drug carriers” (The Regents of the University of California, priority 2009, dated 2012)
Where no end group is shown, it is not given here.

Tests used:
αvβ3 integrins = target: T1, αvβ3 integrins (Homo sapiens, UniProt P05106+P06756); assay: Anti-adhesion assay on vitronectin-coated wells; format: cell-based; details: HeLa cells
T1 construct: host or cells: HeLa cells, harvested by scraping
Procedure: HeLa cells (ATCC, Manassas, Va.) were cultured in DMEM medium (Invitrogen, Carlsbad, Calif.) supplemented with 10% Bovine Growth Serum (BGS, Hyclone, Logan, Utah). The cells were cultured at 37° C., with 98% humidity and 5% CO2. Cells were regularly subcultured using trypsin. 96-well plates were coated with human vitronectin by incubating a vitronectin solution (50 μL of 3 μg/mL, Invitrogen, Carlsbad, Calif.) in the well for 12-hrs at 37° C. The wells were washed three times with PBS and blocked with BSA (50 μL of 2% BSA in PBS) for 30 minutes at 37° C. The wells were washed three times with PBS and 100 μL/well of serum-free DMEM was added before chilling on ice. HeLa cells were harvested by scrapping using cell scrapers (USA Scientific, Ocala, Fla.), pelleted, and resuspended in ice cold serum-free DMEM to 400,000 cells/mL. 200 μL of serum-free DMEM was added to 50 μL of Au-Cap-RGD solution and vortexed before 250 μL of cell solution was added to the cells and placed in ice for 15 minutes. 100 μL/well of cell solution was added and allowed to incubate at 37° C. for 50 minutes. The plate was submerged in PBS in a Ziploc bag and centrifuged upside down for 10 minutes at 250 g. The plate was washed gently with additional PBS and removed. Remaining liquid was removed from the wells. The cells were fixed using 4% paraformaldehyde solution for 15 minutes and washed 3 times with PBS. Crystal violet solution was added to each well and incubated for 1 hr. The wells were then washed with milliQ water until no crystal violet was visible in solution. Crystal violet was solubilized using 10% acetic acid plate for 15 min and the absorbance at 570 nm was taken using the PowerWave microplate reader (BioTek, Winooski, Vt.).

[1] = Salt stability of modified and unmodified nanoparticles by UV-Vis absorbance; format: physicochemical; details: absorption scan, increasing NaCl
Procedure: FIG. 2. Salt stability of modified and unmodified nanoparticles measured using UV-Vis absorbance spectroscopy. Salt concentration was increased using 2 μL for unmodified nanoparticles and 15 μL of 4.11 M NaCl every 15 min. Wavelength scans of (A) 5 nm unmodified Au nanoparticles and (B) Au-Cap nanoparticles in solution with increasing NaCl concentration. Shaded area under the curves in A and B were used to calculate aggregation parameter. C. Aggregation parameter plotted with mean±SD for n=3 for increasing NaCl concentration for 5 nm unmodified Au and Au-Cap.
Peptide-modified (Au-Cap) and unmodified particles were tested to check their salt stability. Au and Au-Cap nanoparticles were added to semi-micro cuvettes and serial additions of NaCl solution were added every 15 min followed by a wavelength scan from 400-900 nm (Beckman DU 730, Fullerton, Calif.). Aggregation parameter (AP) used to quantify aggregation was calculated using the equation AP=(A−A0)/A0. A is the integral of absorbance from 600 to 700 nm, and A0 is the integral of absorbance from 600 to 700 nm of the initial solution without salt added (see FIG. 2 area under the curve).

HeLa cells = assay: Cell toxicity (proliferation) assay; format: cell-based; details: all concentrations tested up to 17.9×10^10 particles/well
Procedure: FIG. 4. Cell toxicity (proliferation) assay for Au-Cap nanoparticles and DNA/PEI-Au polyplexes. HeLa cells were plated in 96-well plates (7000 cells/well) for 12-hrs before exposing the cells to Au-Cap nanoparticles or DNA/PEI-Au-Cap-RGD-ASA polyplexes at varying concentrations of Au nanoparticles (1.7 μL/well) and testing for cell proliferation. The data was normalized to absorbance of untreated samples to calculate the percent viability for each sample (n=3).
To determine whether 5 nm Au-Cap or DNA/PEI polyplexes modified with 5 nm Au-RGD-ASA were toxic to cells, the proliferation rate of HeLa cells exposed to Au-Cap or DNA/PEI-Au-RGD-ASA was compared to that of untreated cells (FIG. 4). Au-Cap nanoparticles were not toxic to cells for all the concentrations tested up to 17.9×10^10 particles/well (equivalent to 80×10^10 particles/m DNA).

T1 sequence (P06756 31-889 limits assumed): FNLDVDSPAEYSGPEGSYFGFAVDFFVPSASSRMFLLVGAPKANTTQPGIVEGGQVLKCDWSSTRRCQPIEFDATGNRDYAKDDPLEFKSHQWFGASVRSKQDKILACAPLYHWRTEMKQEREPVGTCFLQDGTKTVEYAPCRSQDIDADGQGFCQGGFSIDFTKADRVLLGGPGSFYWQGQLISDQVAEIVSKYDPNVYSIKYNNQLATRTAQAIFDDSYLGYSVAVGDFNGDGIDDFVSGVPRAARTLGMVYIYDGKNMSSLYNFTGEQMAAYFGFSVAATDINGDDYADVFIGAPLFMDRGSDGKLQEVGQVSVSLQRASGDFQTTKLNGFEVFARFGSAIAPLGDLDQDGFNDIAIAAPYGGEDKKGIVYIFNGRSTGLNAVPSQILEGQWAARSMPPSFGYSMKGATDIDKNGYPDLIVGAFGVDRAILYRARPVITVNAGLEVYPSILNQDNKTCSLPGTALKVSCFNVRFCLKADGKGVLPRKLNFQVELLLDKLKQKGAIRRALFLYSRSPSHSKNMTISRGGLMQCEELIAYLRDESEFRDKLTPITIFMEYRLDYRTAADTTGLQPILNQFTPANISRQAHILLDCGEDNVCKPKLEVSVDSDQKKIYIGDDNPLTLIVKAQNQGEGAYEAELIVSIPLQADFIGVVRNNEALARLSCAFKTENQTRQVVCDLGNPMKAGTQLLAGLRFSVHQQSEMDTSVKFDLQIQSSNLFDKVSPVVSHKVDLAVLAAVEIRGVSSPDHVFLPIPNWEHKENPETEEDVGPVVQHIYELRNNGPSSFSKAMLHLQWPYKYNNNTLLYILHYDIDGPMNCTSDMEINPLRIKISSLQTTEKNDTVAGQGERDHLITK
T1 sequence (P06756 891-1048 partner limits assumed): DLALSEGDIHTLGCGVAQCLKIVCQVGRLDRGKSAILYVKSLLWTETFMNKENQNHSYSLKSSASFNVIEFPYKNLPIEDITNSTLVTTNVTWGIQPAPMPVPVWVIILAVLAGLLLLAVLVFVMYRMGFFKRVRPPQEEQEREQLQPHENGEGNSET
T1 sequence (P05106 27-788): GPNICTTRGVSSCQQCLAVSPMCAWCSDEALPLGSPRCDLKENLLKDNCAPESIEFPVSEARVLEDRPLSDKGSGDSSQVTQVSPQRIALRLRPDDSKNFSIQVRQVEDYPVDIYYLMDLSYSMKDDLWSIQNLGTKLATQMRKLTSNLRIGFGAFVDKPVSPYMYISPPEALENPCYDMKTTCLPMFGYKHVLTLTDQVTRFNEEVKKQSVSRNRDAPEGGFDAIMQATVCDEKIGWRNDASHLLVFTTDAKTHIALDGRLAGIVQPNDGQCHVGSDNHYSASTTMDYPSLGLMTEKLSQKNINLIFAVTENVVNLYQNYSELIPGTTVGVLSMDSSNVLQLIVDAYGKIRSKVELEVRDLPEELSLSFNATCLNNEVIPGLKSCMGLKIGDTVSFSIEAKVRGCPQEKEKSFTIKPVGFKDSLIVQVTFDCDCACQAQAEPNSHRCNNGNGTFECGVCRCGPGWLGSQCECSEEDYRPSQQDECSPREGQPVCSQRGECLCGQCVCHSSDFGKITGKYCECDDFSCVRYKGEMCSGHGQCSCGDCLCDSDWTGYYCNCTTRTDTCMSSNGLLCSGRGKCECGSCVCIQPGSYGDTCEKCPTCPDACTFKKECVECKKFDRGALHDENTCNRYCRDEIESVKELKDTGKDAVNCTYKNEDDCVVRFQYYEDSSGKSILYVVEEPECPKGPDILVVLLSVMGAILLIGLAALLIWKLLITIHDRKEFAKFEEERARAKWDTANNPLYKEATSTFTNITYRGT

Equivalent amount of RGD required compared to monovalent free RGD peptide (αvβ3 integrins; n=3)	IC50 (αvβ3 integrins; equivalent RGD peptide concentration, read-out: IC50 concentration at which 50% of cell adhesion is inhibited) [nM]	Effect on cell attachment (αvβ3 integrins)	Substance	NaCl concentration up to which nanoparticles are stable [1]	Toxicity to cells (HeLa cells)
required less	~100		Au-Cap-RGD: RGD modified gold nanoparticles formed with mixtures of Cap and Cap-RGD peptides (peptide 1 Ac-CCVVVTGRGDSPSSK-OH; peptide 2 CCVVVT-OH; cysteine pairing not given here; also: mixture of Cap and Cap-RGD peptides on gold nanoparticles)		
		did not affect cell attachment	Au-Cap: 5 nm gold nanoparticles stabilized with self-assembling peptide CCVVVT (Cap) (CCVVVT-OH; cysteine pairing not given here; also: attached to 5 nm gold nanoparticles)	up to 500 mM	not toxic
